These results are taken from patent CN115073593A (SHANGHAI JUNSHI BIOSCIENCES CO LTD; JUNMENG BIOSCIENCES CO …, dated 2022).

First the molecules themselves.
B1: JS016-38 (antibody, V domains shown)
VH: EVQLVESGGGLVQPGGSLRLSCAASGFRVRRNYMSWVRQAPGKGLEWVSVIYPGGSTFYADSVKGRFTISRDNSMNTLFLQMNSLRAEDTAVYYCARVLPMYGDYLDYWGQGTLVTVSS
VL: DIVMTQSPSSLSASVGDRVTITCRASQNIERYLNWYQQKPGKAPKLLIYAASSLQSGVPSRFSGSGSGTDFTLTISSLQPEDFATYYCQQSASSTPEYTFGQGTKLEIKR
B2: CB6-30 (轻链突变库克隆) (Fab, V domains shown)
VH: B1 VH with R28T, R30S, R31S, P53S
VL: DIVMTQSPSSLSASVGDRVTITCRASQWILPYLNWYQQKPGKAPKLLIYAASSLQSGVPSRFSGSGSGTDFTLTISSLQPEDFATYYCQQSSSSTPEYTFGQGTKLEIK
notes: also called CB6-30-VL; CB6-30-LC
B3: CB6-15 (重链突变库克隆) (Fab)
VH: B1 VH with R28Q, R30N
light: […]
notes: also called CB6-15-VH; CB6-15-HC
B4: CB6-34 (轻链突变库克隆) (Fab, V domains shown)
VH: B1 VH with R28T, R30S, R31S, P53S
VL: B2 VL with W28S, P31Q, S94P, T95V
notes: also called CB6-34-VL; CB6-34-LC
B5: CB6-31 (轻链突变库克隆) (Fab, V domains shown)
VH: B1 VH with R28T, R30S, R31S, P53S
VL: B2 VL with W28Q, L30R, P31Q, S94P
notes: also called CB6-31-VL; CB6-31-LC
B6: CB6-27 (轻链突变库克隆) (Fab, V domains shown)
VH: B1 VH with R28T, R30S, R31S, P53S
VL: B2 VL with W28S, S92N, S94P, T95R
notes: also called CB6-27-VL; CB6-27-LC
B7: CB6-32 (轻链突变库克隆) (Fab, V domains shown)
VH: B1 VH with R28T, R30S, R31S, P53S
VL: B2 VL with W28D, L30D, P31G, S92A, S94P, T95V
notes: also called CB6-32-VL; CB6-32-LC
B8: CB6-19 (轻链突变库克隆) (Fab, V domains shown)
VH: B1 VH with R28T, R30S, R31S, P53S
VL: B2 VL with W28Q, L30N, P31F, S92G, T95L
notes: also called CB6-19-VL; CB6-19-LC
B9: CB6-36 (轻链突变库克隆) (Fab, V domains shown)
VH: B1 VH with R28T, R30S, R31S, P53S
VL: B2 VL with W28A, S94A, T95L
notes: also called CB6-36-VL; CB6-36-LC
B10: CB6-17 (轻链突变库克隆) (Fab, V domains shown)
VH: B1 VH with R28T, R30S, R31S, P53S
VL: B2 VL with W28V, L30N, P31H, S92G, S94P
notes: also called CB6-17-VL; CB6-17-LC
B11: CB6-23 (轻链突变库克隆) (Fab, V domains shown)
VH: B1 VH with R28T, R30S, R31S, P53S
VL: B2 VL with L30P, P31S, S92K, S94W, T95K
notes: also called CB6-23-VL; CB6-23-LC
B12: CB6-28 (轻链突变库克隆) (Fab, V domains shown)
VH: B1 VH with R28T, R30S, R31S, P53S
VL: B2 VL with W28D, L30V, P31S, S92A, S94P
notes: also called CB6-28-VL; CB6-28-LC
B13: CB6-26 (轻链突变库克隆) (Fab, V domains shown)
VH: B1 VH with R28T, R30S, R31S, P53S
VL: B2 VL with W28R, L30E, P31Q, S92A, T95S
notes: also called CB6-26-VL; CB6-26-LC
B14: CB6-24 (轻链突变库克隆) (Fab, V domains shown)
VH: B1 VH with R28T, R30S, R31S, P53S
VL: B2 VL with W28Q, L30S, P31R, S94P
notes: also called CB6-24-VL; CB6-24-LC
B15: CB6-21 (轻链突变库克隆) (Fab, V domains shown)
VH: B1 VH with R28T, R30S, R31S, P53S
VL: B2 VL with L30G, P31N, S92T, S94N, T95R
notes: also called CB6-21-VL; CB6-21-LC
B16: CB6-41 (轻链突变库克隆) (Fab, V domains shown)
VH: B1 VH with R28T, R30S, R31S, P53S
VL: B2 VL with W28A, L30A, P31Y, L47E, S92P, S94A, T95F
notes: also called CB6-41-VL; CB6-41-LC
B17: CB6-18 (轻链突变库克隆) (Fab, V domains shown)
VH: B1 VH with R28T, R30S, R31S, P53S
VL: B2 VL with W28D, L30H, P31V, S92G, S94P, T95V
notes: also called CB6-18-VL; CB6-18-LC
B18: CB6-20 (轻链突变库克隆) (Fab, V domains shown)
VH: B1 VH with R28T, R30S, R31S, P53S
VL: B2 VL with W28A, S92Y, S94I, T95I
notes: also called CB6-20-VL; CB6-20-LC
B19: CB6-33 (轻链突变库克隆) (Fab, V domains shown)
VH: B1 VH with R28T, R30S, R31S, P53S
VL: B2 VL with W28N, S94A, T95V
notes: also called CB6-33-VL; CB6-33-LC
B20: CB6-25 (轻链突变库克隆) (Fab, V domains shown)
VH: B1 VH with R28T, R30S, R31S, P53S
VL: B2 VL with W28N, L30M, P31Q, S94P, T95K
notes: also called CB6-25-VL; CB6-25-LC
B21: CB6-38 (轻链突变库克隆) (Fab, V domains shown)
VH: B1 VH with R28T, R30S, R31S, P53S
VL: B2 VL with W28N, L30E, P31R, S92A
notes: also called CB6-38-VL; CB6-38-LC
B22: CB6-22 (轻链突变库克隆) (Fab, V domains shown)
VH: B1 VH with R28T, R30S, R31S, P53S
VL: B2 VL with W28R, S94A
notes: also called CB6-22-VL; CB6-22-LC
B23: CB6-43 (轻链突变库克隆) (Fab, V domains shown)
VH: B1 VH with R28T, R30S, R31S, P53S
VL: B2 VL with W28N, L30H, P31T, S92G, T95I
notes: also called CB6-43-VL; CB6-43-LC
B24: CB6-37 (轻链突变库克隆) (Fab, V domains shown)
VH: B1 VH with R28T, R30S, R31S, P53S
VL: B2 VL with W28M, S94A
notes: also called CB6-37-VL; CB6-37-LC
B25: CB6-40 (轻链突变库克隆) (Fab, V domains shown)
VH: B1 VH with R28T, R30S, R31S, P53S
VL: B2 VL with W28K, L30S, P31Q, S92T, S94F, T95M
notes: also called CB6-40-VL; CB6-40-LC
B26: CB6-29 (轻链突变库克隆) (Fab, V domains shown)
VH: B1 VH with R28T, R30S, R31S, P53S
VL: B2 VL with W28M, S94A, T95K
notes: also called CB6-29-VL; CB6-29-LC
B27: CB6-42 (轻链突变库克隆) (Fab, V domains shown)
VH: B1 VH with R28T, R30S, R31S, P53S
VL: B2 VL with W28S, L30I, P31Q, S92A, S94A, T95R
notes: also called CB6-42-VL; CB6-42-LC
B28: CB6-39 (轻链突变库克隆) (Fab, V domains shown)
VH: B1 VH with R28T, R30S, R31S, P53S
VL: B2 VL with W28P, L30N, P31Q, S92K, T95L
notes: also called CB6-39-VL; CB6-39-LC
B29: CB6-35 (轻链突变库克隆) (Fab, V domains shown)
VH: B1 VH with R28T, R30S, R31S, P53S
VL: B2 VL with W28K, L30H, P31Q, S92E, T95K
notes: also called CB6-35-VL; CB6-35-LC

Substitutions are numbered along the chain they refer to.

The first assay has as its target T1, 重组SARS-CoV-2-RBD-His (SARS-CoV-2, UniProt P0DTC2 319-541).
T1 construct: domain: RBD
Nature of the assay: BLI Octet Red 96e, antibody on Protein A probe.
For the molecule B1, the “fold improvement of the affinity constant over CB6” value is ~100 倍 and the “fold slower dissociation rate than CB6” value was ~100 倍.

In the next assay the target is 生物素化的SARS-CoV-2 RBD (SARS-CoV-2, UniProt P0DTC2 319-541). Nature of the assay: ELISA screen, Fab culture supernatant on streptavidin-captured biotinylated RBD.
Turning to B2, the binding result is listed as “binds”.

With B3, the binding result is listed as “binds”.

With B4, the binding result is on record as “binds”.

As for B5, the binding result was “binds”.

Regarding B6, the binding result is “binds”.

For B7, the binding result is listed as “binds”.

As for B8, the binding result is “binds”.

Take B9: the binding result is listed as “binds”.

For B10, the binding result is “binds”.

Take B11: the binding result is given as “binds”.

With B12, the binding result was “binds”.

As for B13, the binding result is “binds”.

With B14, the binding result is reported as “binds”.

In the case of B15, the binding result is reported as “binds”.

For the molecule B16, the binding result is on record as “binds”.

On to B17, for which the binding result is reported as “binds”.

Take B18: the binding result is listed as “binds”.

As for B19, the binding result is “binds”.

For the molecule B20, the binding result is given as “binds”.

Consider B21, for which the binding result is given as “binds”.

As to B22, the binding result is “binds”.

Regarding B23, the binding result is on record as “binds”.

In the case of B24, the binding result is “binds”.

With B25, the binding result is on record as “binds”.

Regarding B26, the binding result is recorded as “binds”.

On to B27, for which the binding result is listed as “binds”.

Regarding B28, the binding result is listed as “binds”.

For the molecule B29, the binding result was “binds”.

The next assay concerns the target T1, 重组SARS-CoV-2-RBD-His. Nature of the assay: BLI Octet Red 96e, antibody on Protein A probe, RBD-his in solution. Background: BLI is a label-free optical method that tracks binding on a fibre tip over time.
B1 returned a Kd of under 0.0741 nM, a koff of under 1e-05 s⁻¹ and a kon of 135000 M⁻¹ s⁻¹.

As a reminder, the Kd is the equilibrium constant for the complex coming apart. Higher therefore signals lower affinity. The koff is a measure of how fast the partners let go of each other. Low readings indicate a long-lived complex, high ones a short-lived complex. For orientation: kon means the rate constant with which the complex forms. Read a low kon as slower complex formation.
